Assay results from patent US20060292634A1 (CATCHMABS B V, published 2006).

How the values were obtained:
chicken lysozyme [1] = molecular target: T1, chicken lysozyme (chicken, UniProt P00698 19-147); test: ELISA, lysozyme-coated well (100 µg/ml), ~50 ng iMab per well, anti-VSV-HRP; urea-purified
T1 construct: Coated on ELISA plates (100 µg/ml) or immobilized on / passed over Eupergit columns
Protocol: (§1) The microtiter plate was excessively washed with PBS (3 times), PBS+0.1% Tween-20 (3 times) and PBS (3 times).
(§2) After excessive washing using PBS (3 times), PBS+0.1% Tween-20 (3 times) and PBS (3 times), wells were incubated with 100 μl Turbo-TMB for 5 minutes. Reaction was stopped with 100 μl 2M H₂SO₄ and absorbtion was read at 450 nm using a microtiter plate reader (Biorad).

chicken lysozyme [2] = molecular target: T1, chicken lysozyme; test: ELISA on lysozyme, 100-fold dilution of the protein extract
Protocol: as §1, §2

chicken lysozyme [3] = molecular target: T1, chicken lysozyme; test: ELISA

T1 sequence (P00698 19-147 limits assumed): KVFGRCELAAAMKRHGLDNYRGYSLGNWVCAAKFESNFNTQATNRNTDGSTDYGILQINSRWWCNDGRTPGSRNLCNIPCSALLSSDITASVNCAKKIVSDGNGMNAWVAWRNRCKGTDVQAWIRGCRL

Row | Binder | Absorbtion (450 nm) (chicken lysozyme [1]) | ELISA signal over background signal (fold) (chicken lysozyme [2]) | binding result (chicken lysozyme [3])
1 | iMab1302 (designed binder, not shown: C-terminal linker, VSV-tag and 6xHis-tag from vector CM126) VVKVVIKPSQNFIENGEDKKFTCRASGYTIGPKCIGWFSQNPEDDSTNVATINMGGGITYYGDSVKERFDIRRDNAKDTSTLSIDDAQPEDAGIYKCAADSTIYASYYECGHGLSTGGYGYDSEATVGVDIFVKLM | 0.345 A450 | – | –
2 | iMab1300 (designed binder, not shown: C-terminal linker, VSV-tag and 6xHis-tag from vector CM126) LQVDIKPSQGEISVGESKFFLCQASGYTIGPCISWFSPNGEKLNMGSSTLTIYNANIDDAGIYKCAADSTIYASYYECGHGLSTGGYGYQSEATVNVKIFQ | 0.325 A450 | – | –
3 | iMab111 (designed binder, not shown: C-terminal linker, VSV-tag and 6xHis-tag from vector CM126) NVKLVCKGGNFVENDDDLKLTCRAEGYTIGPYCMGWFRQAPNDDSTNVATINMGGGITYYGDSVKERFDIRRDNASNTVTLSMDDLQPEDSAEYNCAGDSTIYASYYECGHGLSTGGYGYDSHYRCQGTDVTVSS | 0.42 A450 | ~20 fold | –
4 | iMab115 (designed binder, Expressed in E. coli (21 kD); also called iMab without glycosylation site) NVKLVEKGGNFVENDDDLKLTCRAEGYTIGPYCMGWFRQAPNDDSTNVATINMGGGITYYGDSVKERFDIRRDQASNTVTLSMDDLQPEDSAEYNCAGDSTIYASYYECGHGLSTGGYGYDSHYRGQGTDVTVSS | – | – | binds
5 | iMab1602 (designed binder, not shown: C-terminal linker, VSV-tag and 6xHis-tag from vector CM126) AVKPVIGSKAPNFGENGDVKTIDRASGYTIGPTCGGVFFQGPTDDSTNVATINMGGGITYYGDSVKETFDIRRDNAKSTRTESYDDNQPEGLTEVKCAADSTIYASYYECGHGLSTGGYGYDVSSRLYGYDILVGTQ | 0.357 A450 | – | –
6 | iMab1202 (designed binder, also called iMab1202 (1EJ6); not shown: C-terminal linker, VSV-tag and 6xHis-tag from vector CM126) IVKLVMEKRGNFENGQDCKLTIRASGYTIGPACDGFFCQFPSDDSFSTEDNMGGGITVNDAMKPQFDIRRDNAKGTWTLSMDFQPEGIYEMQCAADSTIYASYYECGHGLSTGGYGYDNPVRLGGFDVDVPDV | 0.317 A450 | – | –
7 | iMab122 (designed binder, not shown: C-terminal linker, VSV-tag and 6xHis-tag from vector CM126) NVKLVEKGGNFVENDDDLKLTCRASGRTFSSRTMGWFRQAPNDDSTNVATIRWNGGSTYYTNYGDSVKERFDIRVDQASNTVTLSMDDLQPEDSAEYNCAGTDIGDGWSGRYDYRGQGTDVTVSS | 0.271 A450 | – | –
